Experimental data reported in the supplement of paper PMC9732359.
± gives the uncertainty stated by the source.

Experiment: protein stability index of a GFP-peptide fusion (yeast GPS) (PSI 1-4); higher = more stable; sorted into four equal gates, so the index is relative within each strain
Procedure, shortened: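 Tiled 17-residue peptides from yeast proteins were fused downstream of GFP on a plasmid that also expresses Cherry, and the pooled library was carried in yeast. Mid-log cultures grown in leucine-free medium were sorted into four equal gates by GFP/Cherry fluorescence ratio. Plasmids from each gate were PCR-amplified and Illumina-sequenced, and reads were assigned to strains by barcodes. Each peptide's protein stability index is the sum, over gates, of the gate's read frequency multiplied by its gate number.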

Sequence	protein stability index (doa10∆)	protein stability index (pdr5∆)	protein stability index (san1∆)	protein stability index (ubr1∆)
TFENINSLFYLKWSACT [IRR1]	1.26 ± 0.082	1.35 ± 0.082	1.27 ± 0.17	1.21 ± 0.051
SLLEKDIDAVNGAVGKR [ISW2]	2.92 ± 0.09	3.24 ± 0.081	2.9 ± 0.098	3.31 ± 0.064
NMEKEKDRIIDERTKEF [YIL149C/MLP2]	3.11 ± 0.078	2.93 ± 0.11	3.1 ± 0.074	3.16 ± 0.058
WIKNEQERQRQIQKNGP [PRP8]	2.75 ± 0.092	3.09 ± 0.11	2.85 ± 0.14	2.84 ± 0.094
SMKDRAQHAVILDQEKY [RPS25A]	1.55 ± 0.094	2 ± 0.13	2.42 ± 0.14	2.23 ± 0.081
HTPMVNFESISARSSVH [SRB8]	2.08 ± 0.043	1.97 ± 0.032	1.79 ± 0.051	2.12 ± 0.025
WSTTGDNGELDLSGFNI [MED2]	3.18 ± 0.09	3.19 ± 0.12	3.34 ± 0.076	2.93 ± 0.097
IIAVKGSGSRLNRLPAA [RPL23A]	1.42 ± 0.051	1.17 ± 0.049	1.23 ± 0.099	1.42 ± 0.049
QEWLANLKLISVSLVDE [SIR4]	2.77 ± 0.057	1.87 ± 0.047	2.46 ± 0.056	1.67 ± 0.039
CIECQPKAMTDTDNECV [HRT1]	3.26 ± 0.097	3.25 ± 0.093	2.94 ± 0.11	3.32 ± 0.062
YLEESFTNLGIIVQYLT [RGR1]	2.17 ± 0.2	2.49 ± 0.29	2.16 ± 0.19	2.8 ± 0.09
KRRIEEEQEKINSAPDF [ISW2]	3.4 ± 0.2	3.58 ± 0.22	2.98 ± 0.15	3.57 ± 0.099
KDGRIRIFKITEKLSPL [YGL100W/SEH1]	2.84 ± 0.079	2.85 ± 0.09	2.57 ± 0.08	2.79 ± 0.045
FEIDGDVIHFEDSSILQ [PCI8]	3.15 ± 0.083	3.46 ± 0.072	3.04 ± 0.066	3.46 ± 0.044
LFIGLFTRPLFVLLEIE [YCS4]	1.82 ± 0.092	1.98 ± 0.083	2.11 ± 0.15	1.61 ± 0.093
TSAIEVLVGSCAYTGTG [RPN1]	3.06 ± 0.067	3.35 ± 0.062	3.29 ± 0.06	3.28 ± 0.093
INHTILGKLQDVFNLLP [RPN8]	3.16 ± 0.066	3.17 ± 0.081	2.84 ± 0.048	2.96 ± 0.046
KTEDGFVIPALPAAVSK [RPC82]		2.41 ± 0.26		2.8 ± 0.2
LPSGRQDGVLLVALSNE [FAS2]	2.4 ± 0.087	2.52 ± 0.097	2.44 ± 0.091	1.91 ± 0.13
NITKNLKTFNGSLALLK [POP4]		3.19 ± 0.15	2.93 ± 0.082	3.13 ± 0.1

Sequence	protein stability index (doa10∆)	protein stability index (pdr5∆)	protein stability index (san1∆)	protein stability index (ubr1∆)
NRSVVYFKLDLTSDLVY [RRI2]	1.37 ± 0.14	1.92 ± 0.28		1.39 ± 0.078
SKTENVRRLEAQRNALN [RPT6]	2.65 ± 0.17	2.91 ± 0.18		2.88 ± 0.074
SSLEELLLKDQQTAKKL [ECM29]	2.82 ± 0.091	2.99 ± 0.077	2.92 ± 0.1	2.95 ± 0.058
ILTPESQLKKSKAQQKT [RPL7A]	3.02 ± 0.078	3.02 ± 0.12	2.98 ± 0.12	2.98 ± 0.056
TNVYSKDLVIVSNLMGR [RPB3]	3.04 ± 0.073	2.97 ± 0.059	2.96 ± 0.051	2.79 ± 0.04
VREFQRRLAFLGIKVAE [BRR2]	2.06 ± 0.12	1.17 ± 0.14	1.04 ± 0.23	1.17 ± 0.087
KNTMFEKSDALVGVYRQ [SMC1]	3.27 ± 0.18	2.88 ± 0.11	2.7 ± 0.081	2.94 ± 0.23
RGTDIDRINYTETALMN [SRB5]	3.02 ± 0.26	2.98 ± 0.11	2.69 ± 0.082	2.73 ± 0.12
TPNFDDVLKENNDADKG [RIP1]	1.51 ± 0.093	1.35 ± 0.12	1.29 ± 0.15	1.76 ± 0.092
MTAAVTSSNIVLETHES [RPT6]	2.65 ± 0.094	2.78 ± 0.057	2.79 ± 0.081	2.48 ± 0.059
QFCGIKERNSLKKLKAM [BRR2]	3 ± 0.23	3.25 ± 0.12	2.25 ± 0.27	2.99 ± 0.11
KYSAITSSIFQESFNSV [NUT1]	2.22 ± 0.053	2.37 ± 0.046	2.7 ± 0.047	2.48 ± 0.037
DDFFKELAKEAKKSTTI [ESC2]	3.17 ± 0.12	3.09 ± 0.12	2.97 ± 0.094	3.36 ± 0.091
TSMNGVHNTVAAGNASS [SNF5]	2.73 ± 0.043	2.74 ± 0.037	2.76 ± 0.05	2.76 ± 0.051
LESADKQLEKRDYQRIN [POP4]	2.71 ± 0.052	2.72 ± 0.055	2.64 ± 0.065	3.18 ± 0.059
TDKSNSPIGFTNSPQIS [SMC2]	3.02 ± 0.05	3.16 ± 0.054	3.03 ± 0.043	3.03 ± 0.043
MQKPVPFVPVLDRRFEI [FAS1]	1.98 ± 0.034	1.95 ± 0.03	1.82 ± 0.043	1.92 ± 0.028
QTQAIAQQQQLSNYPQQ [YGR119C/NUP57]	2.79 ± 0.058	3.15 ± 0.062	2.58 ± 0.048	2.97 ± 0.046
AIPNPEDVVAISSRTYG [RPS0B]	3.33 ± 0.11	3.07 ± 0.055	2.99 ± 0.079	3.09 ± 0.047
